Starred links: 1 amine or outer side, 2 acyl side, 3 side chain; linkers in the order of their positions; H or OH if unused. Non-standard residues stand in square brackets, D forms with d. No end group written: not given here. Lys(Me3) = C[N+](C)(C)CCCC[C@H](N)C(=O)O; Ethylenediamine = C(CN[*:2])N[*:1]; 5‑FAM = 5-carboxyfluorescein; GABA = NCCCC(=O)O
Biological target: T1, E. coli expressed BAHD1(aa:588–780) (UniProt Q8TBE0 588-780)
T1 chain: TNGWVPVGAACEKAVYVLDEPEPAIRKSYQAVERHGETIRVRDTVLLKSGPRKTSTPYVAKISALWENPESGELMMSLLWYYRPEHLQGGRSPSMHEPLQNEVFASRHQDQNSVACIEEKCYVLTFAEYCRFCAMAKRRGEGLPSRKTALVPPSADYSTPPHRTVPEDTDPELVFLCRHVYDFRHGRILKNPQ
Assay: FP

B1: H3 16–35 K27me3 peptide (peptide)
peptide: PRKQLATKAAR[Lys(Me3)]SAPATGG-{Ethylenediamine-GABA-5‑FAM}
- Kd: 700 nM

Source: publication PMC10325919 (2023)
